{"source": "paper PMC9929602", "target": "tetraspanin CD81 (human (endogenous in THP-1)) (UniProt P60033)", "sequence (P60033 whole entry)": "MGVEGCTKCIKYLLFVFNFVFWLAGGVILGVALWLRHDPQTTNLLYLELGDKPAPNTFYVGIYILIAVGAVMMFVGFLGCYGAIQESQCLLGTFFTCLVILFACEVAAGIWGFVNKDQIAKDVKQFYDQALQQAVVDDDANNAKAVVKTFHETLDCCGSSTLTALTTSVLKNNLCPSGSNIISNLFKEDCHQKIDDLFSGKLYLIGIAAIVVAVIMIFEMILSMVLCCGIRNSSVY"}
{"substance": "AhpC-6×His (recombinant M. abscessus AhpC) (enzyme)", "values": [{"measurement": "reduction of infectivity of Mab WT (CFU) in THP-1 cells pre-incubated with 2 μg soluble AhpC-His, against untreated cells or cells pre-incubated with Hsp16.7-His", "result": 30, "unit": "%"}]}
